The NTF2 design screens of Basanta et al. (2020)

experiment: protease stability score; higher = more stable; yeast display proteolysis, trypsin and chymotrypsin;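 further: relative to predicted unfolded state with 0 unfolded-like and 1 meaning tenfold more protease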

Row | Sequence | protease stability score
1 | SDEEKHAEEYHRQLTRDIMTGDEHILHELVDPHVLERVDGKDNHGWEEIAHFWVRFKNMRMHIEIHEIRHIGDFVDSDIKIRVVYNGKDITMRVHFHVEKINGRWLTTHIRIK | 0.352
2 | DDTRELSKHWHERWLHAHETGDEELLLSLLDPHVRLEVGDKHLIGRDKLKWHMEEEIEFFKNAKLHVRRVSIQGNKIEMELEVRIDGVRHEVHIHYDIIDGRITRFEVRIV | 0.21
3 | DEREKEALDIAREVLHNIMTGDWERLSQLLDPNTRFHEHWNGVHIDLHGRETVSHLLFRHVKHIRIEHVHLEDMVVIGEKAIIHSRRHIEIDGKHMTHHVLLYLLVIDGKIKDVRLHLE | 0.869
4 | EEEEWLVKIAIRILIETFRTGDFHLWEELADPNTRLRIGNFEFHGREEVLHSLIEMRIHSVHIEDHKVIDGRLHVDSRLLGTFNGQHINRETRLISLKINGVWFIKSFEFV | 0.648
5 | DEEEQQVEEVLRNMLRDFYTGDWKRLMKLADPHVQLDINGQLHHGREEAARFLIEWWEILGFKHSRLRHIDIQGEKLHIHGDKRVNGRTFELELIIIIINGRIRSEEIRVI | 0.691
6 | SEDEEDLKRIVELLVRALKTGDEDLIRHLADPHVRLEVGDKEHHGREEYTRWAENFVERIDHVNIHIKRMTTIGNYLQMDVRLEERFDGRRVELRHYLIILKVDGRWVIKEVQIE | 1.25
7 | SELERHAKEIAKIFSEVESTGDEDRMWELVDPDVRLHVGDKEFHGMEWVITLIREHLRHIRLKHVEITHIRVIDGRVDVDTRIHGIINGRELVTKSRIIIDKINGRWLVSSLKYE | 1.15
8 | DEEEIEIRRIWERELHWRSTGDEKSLIELMDPRTIIEINGREIHGREEADRHVHEFAEKYKNVRVRYFVREIEVQGEFVHVHTEITLDFDGVEIRFFMILIILKIDGRWLSHRVIVH | 0.81
9 | SEDERELKHWQTIALRLWKTGDFKSELENLDPHARLHINGVHIIGRERMKEFLERIKNLRVEHLHDEHVHIQGDKITLHGHMDVIINGQRTEVDYEFILLKVNGRWLDHSIEMR | 1.1
10 | TEDEDVLKEATRLFVEALKTGDWDHMRRLIDPNARVTQGDKEIHGMEDTVKIRRHLYEKWGVERVEMRIHDMEYQGDKLKVDMELQIGDKHKRIELVLRKVDGQWIIERIRYT | 0.528
11 | HEIHELLKRVVDMLRTLWETGDEETWNSLADPNTKFVIGDKEVVGMEEITRIFLHERERADHMKFEVRRIRTVGDKADSHGHLRLDIGNKHVTHEIDLHVRVINGRIKQVELRIH | 1.33
12 | REEEKKLEDIVKKLLEAWETGDEDFLIEMADPDTRVEFEAENHHEHRVGWENMIHWTHEVHRHLGVKHLMIDSSTIIGEKVHIDGTMNINGREVKIRIIIEIVDGRVKKIKIIVH | 1.71
13 | HESHNRVERILEEFFKAVETGDWRVLHELLDPHVRLDVDGRDHHGREDFSRFMKEIRVEEFRVTHLQIQGDKANVQSHRVGTYNGKRQEIRTWIHITKIDGQWYITEVTME | 0.544
14 | DEDKQHAEKVWRLFSKFVNTGDEESLNRLFDPDVKLRVGDKEFHGREEFVKFMSELYRRIDHVHWHFSHIEVVGEYIIIHGHTIFEVGDKKDSRDTRLIMFKVNGRWHIHHIRIE | 2.33
15 | SEDDEQAHRTIEIWLRASRTGNEEELERLADPHDKIEFNGREHHGREEFLKIMKHLRVHHMDVRDRTLIGDKINIDVILDLHFNGRRHIIELTTILVKINGRWFFKSWIFI | 1.21
16 | SEEEQLVQSAIEITVEALQTGDEHKIREMLDPHVKVRINGQDTHGWEVMEVFMKELGIKHIRVHIEHVNVQGEKVEVKGRVIINFNGRHYEREHWIIIFKIDGRWVNDSIEYI | 2.12
17 | DEEEKEDHKMLHDFIHLWLTGDEEDWSHLADPRTRLILIQGDKVIDRHGMELASEELRRILEEMRVDDFKVEHVEVINGKSKVHGKTDVTFNGKREIIDIHIELHVVNGRMKTVKMVWI | 0.927
18 | SEVHRDLRKAVDYFEEVFRTGDEDKMNNLLDPNVRWIVNGKDLVGREKAIRRYHEHRKTLGVNHFETRIDDQEVYGNKATLHGELTIHVNGRDIHHETRLNVSKINGVWYIESFIID | 0.949
19 | SEEEEILRIALEIFIHLWQTGDEDMLKHYADPEVRVHFDGRDYHGMNDLQFFVHELRKRYPGIRLHIEHVEIEVYNGRVFIIIHQRLDFNGQVITEEVRLIVIKINGRWDIHSVKYHSH | 0.756
20 | NEEEHTFEIAIRILREMWETGDEKLSQELADPNARLDIGDKHFHGRESLRHRVHEMRIEHTDIHSYHTINGRVHMDWRVDGFINGQRHDTRMHLDVIKIDGRWIIKNVEVK | 0.571
21 | DEEDEKTRRMAELWSKWKSTGDEELFHHFADPRTRLEIGDKKYHGRDLISKIWFKERKEIRSDINIKDVDVFNGVAILHGTLILEINGQRDSIDVTFHIVLINGRIHEVRVEWR | 0.73
22 | SEFDEASREAHEWFVELSKTGDEHEVKKFFDPNMRIDWNGVELIGRDTASKFFHELRFEHVRMEDVKFIDGVLRLDSHSIVNVNGQRFETRDDIVIEKFNGQWILKSIRVE | 1
23 | DEEKEEAEHFFHFFFHLLITGDEEQWFRLADPNMRVRVNGVLLHGREIWERLVQEIRVNHMHLDRMEIHVFNGRMDVYIIGHVRRIIGDKEETTTVHIRIVMFKVNGRWVIHAVEEDYR | 1.81
24 | SEHEERMRRYIEIFIHNLITGDEHMINRMADPSTIVIINGVRLWGREEFSKWVRRERERIDHIEMRIEHLDVQGDKATVDVRVEEHVGDKSEERSLIIRLIVVNGRSHSMHFEVR | 1.59
25 | SELEELWRKMVEFQERSNTTGDEKSFLEMLDPDMRIIIGDFEFHGRENAKDYLRRVDHIHHVEYRRVDLQGDKAHIEMHINGHWDGRTHRTDTHLHLRKFNGRWHVEDVQVD | 1.41
